Data published in paper PMC9872726 (Nature cell biology, 2022).

Target: HSPB1 wild-type (human, UniProt P04792 1-205)
Assay: NMR titration

HSPB1 wild-type, sequence (P04792 whole entry): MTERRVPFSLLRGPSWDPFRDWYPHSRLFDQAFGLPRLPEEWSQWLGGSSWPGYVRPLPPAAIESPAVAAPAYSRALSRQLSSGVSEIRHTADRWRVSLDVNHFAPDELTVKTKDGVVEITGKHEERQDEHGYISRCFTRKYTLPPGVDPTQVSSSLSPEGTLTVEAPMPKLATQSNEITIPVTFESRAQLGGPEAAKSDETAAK

binding result: binds
B1: TDP-43 LCD (domain or fragment, UniProt Q13148 274-414, looked up)
chain: GRFGGNPGGFGNQGGFGNSRGGGAGLGNNQGSNMGGGMNFGAFSINPAMMAAAQAALQSSWGMMGMLASQQNQSGPSGNNQNQGNMQREPNQAFGSGNNSYSGSNSGAAIGWGSASNAGSGSGFNGGFGSSMDSKSSGWGM
